This passage reports Ki and Kd results from patent US7022489 (dated 2006).

As usually defined, the Ki is the equilibrium dissociation constant of an inhibitor or competing ligand from its target. Higher therefore signals a looser hold on the target. For orientation: Kd means the equilibrium constant for the complex coming apart.

Some results are limits rather than exact numbers.

The target of assay [1] is T1, human GALR3 (human).
T1 chain: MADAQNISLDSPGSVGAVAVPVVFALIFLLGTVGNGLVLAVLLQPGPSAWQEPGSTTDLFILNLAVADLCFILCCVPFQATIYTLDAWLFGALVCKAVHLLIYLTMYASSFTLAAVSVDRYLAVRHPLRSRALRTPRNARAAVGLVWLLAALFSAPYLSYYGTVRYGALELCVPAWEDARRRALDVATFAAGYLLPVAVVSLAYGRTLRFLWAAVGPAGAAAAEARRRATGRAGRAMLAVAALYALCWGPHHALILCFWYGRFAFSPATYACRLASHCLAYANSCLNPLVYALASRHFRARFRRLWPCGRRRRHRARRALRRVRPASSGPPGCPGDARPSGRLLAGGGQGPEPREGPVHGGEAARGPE
The experiment in a line: competition.

The target in assay [2] is T2, rat GALR3 (rat).
T2 chain: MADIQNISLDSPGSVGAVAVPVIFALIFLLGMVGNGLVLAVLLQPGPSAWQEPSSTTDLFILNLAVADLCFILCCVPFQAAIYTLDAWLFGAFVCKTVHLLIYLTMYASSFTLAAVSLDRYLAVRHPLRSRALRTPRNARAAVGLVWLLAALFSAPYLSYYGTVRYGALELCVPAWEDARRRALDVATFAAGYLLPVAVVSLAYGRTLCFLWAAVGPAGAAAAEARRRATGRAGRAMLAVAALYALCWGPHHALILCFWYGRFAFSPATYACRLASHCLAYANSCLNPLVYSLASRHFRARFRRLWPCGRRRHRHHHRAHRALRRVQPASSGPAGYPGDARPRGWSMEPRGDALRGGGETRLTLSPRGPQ
The assay is described as follows: competition.

In assay [3] the target is T2, rat GALR3. The experiment in a line: competition.
In assay [4] the target is T2, rat GALR3. The experiment in a line: competition, 293-rGalR3-105.
The target in assay [5] is T2, rat GALR3. The experiment in a line: competition, COS-7.
In assay [6] the target is T1, human GALR3. The experiment in a line: other, 125I-galanin saturation, L-hGalR3-228 membranes.
Assay [7] deals with T2, rat GALR3. The experiment in a line: other, 125I-galanin saturation, COS-7 membranes.

B1: D-Trp2-galanin 1-29 (protein)
chain: KRGWTLNSAGYLLGPHAIDNHRSFHDKYGLAGKRELEPEDEARPGGFDRLQSEDKAIRTIMEFLAFLHLKEAGALGRLPGLPSAASSEDAGQS
modifications: D-Trp at position 2, mature numbering
Consider B1, for which the Ki in assay [1], in assay [2], in assay [3], in assay [4] and in assay [5] was greater than 1 µM throughout.

B2: porcine galanin (protein)
chain: KRGWTLNSAGYLLGPHAIDNHRSFHDKYGLAGKRELEPEDEARPGGFDRLQSEDKAIRTIMEFLAFLHLKEAGALGRLPGLPSAASSEDAGQS
B2: the Kd in assay [6] is 0.00257 µM; in assay [7], 0.00034 µM.
